Reference: paper PMC10405735

What was measured:
[1] = molecular target: human GPR182 (hGPR182), expressed from hGPR182 T2A GFP in 300.19 pre-B cells (human) (UniProt O15218); experiment: flow cytometry on cells; competition scavenging at 37°C: 300.19 cells expressing mGPR182 or hGPR182 with 3 nM fluorescent chemokine and increasing concentrations of its unlabeled counterpart, 45 min
[2] = molecular target: murine GPR182 (mGPR182), expressed from mGPR182 T2A GFP in 300.19 pre-B cells (mouse) (UniProt P43142); experiment: as above
CCL20 (Mus musculus) = CCL20 (Mus musculus) (UniProt O89093); conditions: cited from earlier work

Row | Kd (competition scavenging) [1] | Kd (competition scavenging) [2] | Substance | Kd (CCL20 (Mus musculus))
1 | 0.085 µM | 0.06 µM | hCXCL12, unlabeled (from UniProt P48061 22-93) (ligand) | 
2 |  |  | ACKR4 (from UniProt Q924I3) | 0.8 µM
